In test [1] the target is T1, humanized dPHD-HD1 (Pygo PHD F773W in complex with Lgs HD1) (Drosophila, UniProt Q9V9W8 747-804; Q961D9 321-353, F773W).
T1 sequence 1: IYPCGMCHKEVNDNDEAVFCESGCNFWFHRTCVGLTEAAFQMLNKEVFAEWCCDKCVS
T1 sequence 2: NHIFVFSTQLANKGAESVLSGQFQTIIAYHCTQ
The test can be described thus: ITC; linked PHD-HD1 complex (uncleaved linker).

Test [2] deals with T1, humanized dPHD-HD1 (Pygo PHD F773W in …). The test can be described thus: ITC; linked PHD-HD1 complex (uncleaved). In general terms: In ITC the heat of successive injections is recorded.

For one molecule, Kd results are on record in publication PMC3851687 (2013).

A word on the Kd: it is the concentration at which binding is half-saturated. High values mean weaker binding, low ones tighter binding.

Regarding ARTKQTARKSTGGKA (dimethyl-lysine at K4 (K4me2)) [H3K4me2 15-mer (histone H3 tail peptide dimethylated at lysine 4)], the Kd in test [1] and in test [2] was 7.5 µM throughout.
